Source: US20140086936

Molecular target: hemagglutinin (HA0) of influenza A/Puerto Rico/8/34 (PR8) virus, P03452

B1: Recombinant purified human matriptase (amino acids 596-855) (protein)
chain: GSDEKDCDCGLRSFTRQARVVGGTDADEGEWPWQVSLHALGQGHICGASLISPNWLVSAAHCYIDDRGFRYSDPTQWTAFLGLHDQSQRSAPGVQERRLKRIISHPFFNDFTFDYDIALLELEKPAEYSSMVRPICLPDASHVFPAGKAIWVTGWGHTQYGGTGALILQKGEIRVINQTTCENLLPQQITPRMMCVGFLSGGVDSCQGDSGGPLSSVEADGRIFQAGVVSWGDGCAQRNKPGVYTRLPLFRDWIKENTGV
cleavage of HA0 to HA1, Western blot: matriptase was able to cleave viral HA
